This is an account of results in patent US20240158497A1 (published 2024).

The target of experiment [1] is T1, human LEPR extracellular domain expressed with a C-terminal myc-myc-hexahistidine tag (human, UniProt P48357 22-839).
T1 construct: Monomeric reagent; the whole entry is the construct with its tag; also called hLEPR-MMH; hLEPR.mmh
As to the kind of experiment: SPR Biacore 4000, bsAb captured by anti-human Fc, 25 C. The gist of the method:
(§1)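 Anti-hFc-captured bispecific antibodies received 3-fold serial dilutions of LEPR or GP130 (100 nM–3.7 nM) in HBS-ET, pH 7.4, injected for 4 min with 10 min dissociation at 25 °C or 37 °C. ka and kd came from a 1:1 binding model with mass transport limitation, and KD and t½ were calculated from these rate constants.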
A general note: In SPR one partner is held on a chip, and binding of the other changes the refractive index at the surface.

In experiment [2] the target is T2, Macaca Fascicularis LEPR extracellular domain expressed with a C-terminal myc-myc-hexahistidine tag (Macaca fascicularis, UniProt Q9MYL0 22-837 (rhesus entry)).
T2 construct: Monomeric reagent; the whole entry is the construct with its tag; also called mfLEPR-MMH
The experiment is described as above. The method in brief:
as §1

Experiment [3] deals with T1, human LEPR extracellular domain …. In words: SPR Biacore 4000, bsAb captured by anti-human Fc, 37 C. The method in brief: as §1
Experiment [4] addresses T2, Macaca Fascicularis LEPR extracellular …. The experiment is described as above. The method in brief:
as §1

B1: bsAb19154D (bispecific antibody, V domains shown)
VH 1: QVQLVESGGGVVQPGRSLRLSCTASGFTFSSYAMYWVRQAPGKGLEWVSVIYYDGSYKYYADSVKGRFTISRDNSKNTLYLQMDSLRAEDTAVYYCASYNWNYWYFDFWGRGTLVTVSS
VH 2: QVQLQQSGPGQMKSSQTLTLTCAISGDSVSSNSAIWYWIRQSPSRGLEWLGRTKFRSKWYNDFALSMKSRITINPDTSKNQFSLHLNSVTPEDTAVYYCARYKWELYFDYWGQGTLVTVSS
VL: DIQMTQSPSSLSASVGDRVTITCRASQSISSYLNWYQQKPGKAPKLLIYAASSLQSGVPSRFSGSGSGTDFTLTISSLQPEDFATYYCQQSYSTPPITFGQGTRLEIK
notes: common light chain
Broadly, the Kd is the free concentration of one partner at which half of the binding sites on the other are occupied at equilibrium, for simple one-to-one binding. Lower therefore signals tighter binding. As a reminder, the koff is a measure of how fast the partners let go of each other. A low value points to slow dissociation. The term kon denotes a measure of how fast the partners come together. A lower kon goes with slower complex formation. By t½ is commonly meant the time in which the quantity being followed falls by half. Low readings indicate fast loss, high ones slow loss. In the case of B1, in experiment [1], the “100 nM hLEPR-MMH Bound (RU)” value stood at 40 RU; the affinity, expressed as Kd, was 7.95 nM; the koff worked out at 0.00018 s⁻¹; the kon was 22600 M⁻¹ s⁻¹. The t½ in experiment [1] was found to be 64 min. In addition, in experiment [2], the “100 nM mfLEPR-MMH Bound (RU)” value stood at 102 RU, the Kd came out at 2.96 nM, the off-rate (koff) was found to be 0.000121 s⁻¹ and the kon stood at 40800 M⁻¹ s⁻¹. In addition, the t½ in experiment [2] amounted to 96 min. Moreover, in experiment [3], the “100 nM hLEPR-MMH Bound (RU)” value worked out at 65 RU, binding was characterised by a dissociation constant (Kd) of 19.2 nM, the koff was determined as 0.000729 s⁻¹ and the kon amounted to 37900 M⁻¹ s⁻¹. Also, the t½ in experiment [3] turned out to be 16 min. For the same molecule, in experiment [4], the “100 nM mfLEPR-MMH Bound (RU)” value came to 159 RU, the Kd was 5.64 nM, the koff worked out at 0.000541 s⁻¹ and the kon is 96000 M⁻¹ s⁻¹. Further, in experiment [4], the t½ was found to be 21 min.

B2: bsAb19155D (bispecific antibody, V domains shown)
VH 1: QVQLVESGGGVVQPGRSLRLSCTASGFTFSSYAMYWVRQAPGKGLEWVSVIYYDGSYKYYADSVKGRFTISRDNSKNTLYLQMDSLRAEDTAVYYCASYNWNYWYFDFWGRGTLVTVSS
VH 2: EVQLVESGGGLVQPGGSLRLSCAASGFTFSTYWMNWVRQAPGKGLEWVANIKEDGSEKYYVDSVKGRFTISRDNAKNSLYLQMNSLRAEDTAVYYCAREGFGVVTYIWGQGTMVTVSS
VL: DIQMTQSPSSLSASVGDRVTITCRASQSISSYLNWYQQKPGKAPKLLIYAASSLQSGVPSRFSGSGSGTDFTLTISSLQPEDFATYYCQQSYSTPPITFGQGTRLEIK
notes: common light chain
As for B2, in experiment [1], the “100 nM hLEPR-MMH Bound (RU)” value stood at 40 RU, the Kd amounted to 6.36 nM, the off-rate constant (koff) came to 0.000153 s⁻¹ and the kon is 24000 M⁻¹ s⁻¹. The t½ in experiment [1] came to 76 min. Moreover, in experiment [2], the “100 nM mfLEPR-MMH Bound (RU)” value was found to be 103 RU, the Kd was found to be 2.9 nM, the koff stood at 0.000122 s⁻¹ and the kon amounted to 42000 M⁻¹ s⁻¹. Besides, the t½ in experiment [2] worked out at 95 min. Also, in experiment [3], the “100 nM hLEPR-MMH Bound (RU)” value was 63 RU, the Kd is 20 nM, the koff was determined as 0.000792 s⁻¹ and the kon was found to be 39700 M⁻¹ s⁻¹. In experiment [3], this molecule yielded a t½ of 15 min. Further, in experiment [4], the “100 nM mfLEPR-MMH Bound (RU)” value was 155 RU; the affinity, expressed as Kd, was 5.49 nM; the koff came to 0.000565 s⁻¹; the on-rate constant (kon) is 103000 M⁻¹ s⁻¹. In experiment [4], this molecule showed a t½ of 20 min.

B3: bsAb19156D (bispecific antibody, V domains shown)
VH 1: QVQLVESGGGVVQPGRSLRLSCTASGFTFSSYAMYWVRQAPGKGLEWVSVIYYDGSYKYYADSVKGRFTISRDNSKNTLYLQMDSLRAEDTAVYYCASYNWNYWYFDFWGRGTLVTVSS
VH 2: QVQLVESGGGLVKPGGSLRLSCAASGFTFSDYYMTWIRQTPGKGLDWVSYISSSGTNKYNADSVKGRFTISRDNAKNSLYLQMNSLRAEDTAVYYCVRDPPWGMDVWGQGTTVTVSS
VL: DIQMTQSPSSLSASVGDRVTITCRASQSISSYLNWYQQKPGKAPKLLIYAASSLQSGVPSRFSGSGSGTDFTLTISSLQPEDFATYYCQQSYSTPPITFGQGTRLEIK
notes: common light chain
For B3, in experiment [1], the “100 nM hLEPR-MMH Bound (RU)” value was found to be 39 RU, the Kd was found to be 7.11 nM, the koff turned out to be 0.000164 s⁻¹ and the on-rate (kon) is 23100 M⁻¹ s⁻¹. In experiment [1], this molecule displayed a t½ of 70 min. In addition, in experiment [2], the “100 nM mfLEPR-MMH Bound (RU)” value was 97 RU, the Kd came to 3.27 nM, the koff was determined as 0.000132 s⁻¹ and the kon is 40400 M⁻¹ s⁻¹. This molecule registered a t½ in experiment [2] of 87 min. In addition, in experiment [3], the “100 nM hLEPR-MMH Bound (RU)” value worked out at 60 RU, the Kd was 23 nM, the koff was 0.000842 s⁻¹ and the kon was found to be 36600 M⁻¹ s⁻¹. For the same molecule, the t½ in experiment [3] was found to be 14 min. Besides, in experiment [4], the “100 nM mfLEPR-MMH Bound (RU)” value turned out to be 148 RU, the Kd came out at 5.88 nM, the koff is 0.000567 s⁻¹ and the kon turned out to be 96400 M⁻¹ s⁻¹. The molecule further came in with a t½ in experiment [4] of 20 min.

B4: bsAb19757D (bispecific antibody, V domains shown)
VH 1: EVQLVESGGGLVQPGGSLRLSCVASGFTFNKYDMHWVRQTTGKGLEWVSGIDTDGDTYYPGSVKGRFTISRENAENSLYLQMNGLRVGDTAVYYCARWPWSGFYGAFDIWGQGTMVTVSS
VH 2: EVQLVESGGGVVRPGGSLRLSCTASGFTFDDYGMSWVRQAPGKGLEWVSGINWNGGRTEYADAVKGRFIISRDNAKNSLYLQMNSLRAEDTALYFCARTELRWDYWGQGTLVTVSS
VL: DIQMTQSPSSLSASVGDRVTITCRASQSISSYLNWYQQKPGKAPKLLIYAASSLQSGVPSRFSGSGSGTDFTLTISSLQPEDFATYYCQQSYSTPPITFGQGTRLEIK
notes: common light chain
For B4, in experiment [1], the “100 nM hLEPR-MMH Bound (RU)” value was found to be 57 RU, the Kd stood at 7.85 nM, the koff amounted to 0.000162 s⁻¹ and the on-rate (kon) worked out at 20700 M⁻¹ s⁻¹. In experiment [1], the t½ is 71 min. Moreover, the “100 nM mfLEPR-MMH Bound (RU)” value in experiment [2] is 7 RU. In experiment [3], the “100 nM hLEPR-MMH Bound (RU)” value turned out to be 81 RU, binding was put at a Kd of 19.1 nM, the koff was found to be 0.000625 s⁻¹ and the on-rate constant (kon) was 32800 M⁻¹ s⁻¹. Moreover, in experiment [3], the t½ came to 18 min. The “100 nM mfLEPR-MMH Bound (RU)” value in experiment [4] worked out at 7 RU.

B5: bsAb19758D (bispecific antibody, V domains shown)
VH 1: EVQLVESGGGLVQPGGSLRLSCVASGFTFNKYDMHWVRQTTGKGLEWVSGIDTDGDTYYPGSVKGRFTISRENAENSLYLQMNGLRVGDTAVYYCARWPWSGFYGAFDIWGQGTMVTVSS
VH 2: EVQLVESGGGLVQSGGSLRLSCAASGFTFSRYEMNWVRQAPGKGLEWVAYISNTGTTRDYSDSVKGRFTISRDNAKNSLYLQMSSLRVEDTAVYYCVREKFSGTSDWFDPWGQGTLVTVSS
VL: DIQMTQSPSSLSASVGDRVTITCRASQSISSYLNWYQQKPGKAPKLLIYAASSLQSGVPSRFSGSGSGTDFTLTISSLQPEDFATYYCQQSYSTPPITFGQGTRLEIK
notes: common light chain
As for B5, in experiment [1], the “100 nM hLEPR-MMH Bound (RU)” value worked out at 54 RU, binding was characterised by a dissociation constant (Kd) of 10.3 nM, the koff turned out to be 0.000163 s⁻¹ and the kon came to 15900 M⁻¹ s⁻¹. The t½ in experiment [1] turned out to be 71 min. Also, in experiment [2], the “100 nM mfLEPR-MMH Bound (RU)” value is 9 RU, binding was put at a Kd of 583 nM, the koff was 0.0225 s⁻¹ and the kon was 38600 M⁻¹ s⁻¹. This molecule yielded a t½ in experiment [2] of 0.5 min. For the same molecule, in experiment [3], the “100 nM hLEPR-MMH Bound (RU)” value came to 73 RU, the Kd is 20.6 nM, the koff came out at 0.000663 s⁻¹ and the kon stood at 32300 M⁻¹ s⁻¹. Besides, the t½ in experiment [3] was 17 min. Besides, the “100 nM mfLEPR-MMH Bound (RU)” value in experiment [4] is 5 RU.

B6: bsAb21236D (bispecific antibody, V domains shown)
VH 1: QVQLQESGPGLVKPSQTLSLTCTVSGGSISSGGDYWSWIRQLPGKGLEWIGYIYYSGSAYYNPSLKSRGTISIDTSKNQFSLKLTSVTAADTAVYFCVKLRFLEWFLGGWFGPWGQGTLVTVSS
VH 2: QVQLVESGGGLVKPGGSLRLSCAASGFTFSDYYMTWIRQTPGKGLDWVSYISSSGTNKYNADSVKGRFTISRDNAKNSLYLQMNSLRAEDTAVYYCVRDPPWGMDVWGQGTTVTVSS
VL: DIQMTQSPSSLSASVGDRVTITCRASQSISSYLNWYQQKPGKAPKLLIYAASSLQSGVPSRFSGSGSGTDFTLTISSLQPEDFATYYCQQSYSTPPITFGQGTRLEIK
notes: common light chain; also called H4H21236D
In experiment [1], B6 had a Kd of 106 nM, a koff of 0.00372 s⁻¹, a kon of 35100 M⁻¹ s⁻¹ and a t½ of 3.1 min. In experiment [2], the “100 nM mfLEPR-MMH Bound (RU)” value was 12 RU, binding was put at a Kd of 83.4 nM, the koff turned out to be 0.00482 s⁻¹ and the kon is 57900 M⁻¹ s⁻¹. The t½ in experiment [2] is 2.4 min. Also, in experiment [3], the “100 nM hLEPR-MMH Bound (RU)” value worked out at 5 RU, the Kd came to 726 nM, the koff was 0.0131 s⁻¹ and the kon worked out at 18000 M⁻¹ s⁻¹. In experiment [3], this molecule showed a t½ of 0.9 min. Moreover, in experiment [4], the “100 nM mfLEPR-MMH Bound (RU)” value amounted to 9 RU, binding was put at a Kd of 284 nM, the koff stood at 0.0176 s⁻¹ and the kon was 61900 M⁻¹ s⁻¹. Also, in experiment [4], the t½ was 0.7 min.

B7: bsAb21237D (bispecific antibody, V domains shown)
VH 1: EVQLVESGGGLVQPGGSLRLSCAASGFTFSNYGMTWVRQAPGKGLEWVSAITGGGGSTYYSNSVKGRFTISRDNSKNTVYLRMNSVRAEDTAVYYCAKYKWNFVDDWGQGTTVTVSS
VH 2: QVQLVESGGGLVKPGGSLRLSCAASGFTFSDYYMTWIRQTPGKGLDWVSYISSSGTNKYNADSVKGRFTISRDNAKNSLYLQMNSLRAEDTAVYYCVRDPPWGMDVWGQGTTVTVSS
VL: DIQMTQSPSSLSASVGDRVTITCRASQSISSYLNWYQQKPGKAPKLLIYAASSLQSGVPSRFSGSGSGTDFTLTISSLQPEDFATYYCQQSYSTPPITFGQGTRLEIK
notes: common light chain; also called H4H21237D
With B7, in experiment [1], the “100 nM hLEPR-MMH Bound (RU)” value turned out to be 11 RU, the Kd came to 78.7 nM, the koff stood at 0.00121 s⁻¹ and the kon is 15300 M⁻¹ s⁻¹. For the same molecule, in experiment [2], the “100 nM mfLEPR-MMH Bound (RU)” value stood at 16 RU, binding was characterised by a dissociation constant (Kd) of 37.8 nM, the koff is 0.00116 s⁻¹ and the kon is 30800 M⁻¹ s⁻¹. Besides, in experiment [3], the “100 nM hLEPR-MMH Bound (RU)” value worked out at 15 RU; the affinity, expressed as Kd, was 280 nM; the koff was determined as 0.00442 s⁻¹; the kon turned out to be 15800 M⁻¹ s⁻¹. The molecule also showed a t½ in experiment [3] of 2.6 min. Moreover, in experiment [4], the “100 nM mfLEPR-MMH Bound (RU)” value came to 27 RU, binding was put at a Kd of 151 nM, the koff came out at 0.00424 s⁻¹ and the kon is 28100 M⁻¹ s⁻¹. This molecule came in with a t½ in experiment [4] of 2.7 min.
